Measured values: patent US20030095977A1 (published 2003)

Biological target: T1, CD20 (human, UniProt P11836 1-297)
T1 construct: whole, on cells; also called CD20 on Ramos cells
T1 sequence (looked up): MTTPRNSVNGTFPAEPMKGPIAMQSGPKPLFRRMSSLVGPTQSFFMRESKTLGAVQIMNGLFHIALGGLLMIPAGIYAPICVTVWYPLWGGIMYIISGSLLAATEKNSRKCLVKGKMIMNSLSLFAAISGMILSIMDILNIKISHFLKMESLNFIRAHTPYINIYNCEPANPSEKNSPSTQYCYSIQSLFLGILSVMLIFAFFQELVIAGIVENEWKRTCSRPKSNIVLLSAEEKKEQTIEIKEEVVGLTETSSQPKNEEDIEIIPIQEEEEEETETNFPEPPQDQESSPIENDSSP
Test: saturation binding of radiolabeled mAb to Ramos cells (10^7 cells), nonlinear regression; avidity

B1: B9E9 mAb (murine anti-CD20 antibody B9E9) (antibody, V domains shown)
VH: QVQLVQSGAELVKPGASVKMSCKASGYTFTSYNMHWVKQTPGQGLEWIGAIYPGNGDTSYNQKFKGKATLTADKSSSTAYMQLSSLTSEDSAVYYCARAQLRPNYWYFDVWGAGTTVTVSS
VL: DIVLSQSPAILSASPGEKVTMTCRASSSVSYMHWYQQKPGSSPKPWIYATSNLASGVPARFSGSGSGTSYSLTISRVEAEDAATYYCQQWISNPPTFGAGTKLELK
In the case of B1, the Ka is reported as 1.02e+08 M⁻¹ and the Kd is reported as 9.75 nM.
